Laboratory results as given in publication PMC9897197 (Brain, 2022).

Tests used:
Brain uptake = settings: ISCP, 13.5-month-old female non-Tg vs 3xTg-AD mice; unpaired t-test
INSRβ = INSRβ (Mus musculus, UniProt P15208); test: Phosphorylation of INSRβ; type: in vivo; settings: 6-month-old C57Bl6 mice
INSRβ, sequence (P15208 28-746 limits assumed): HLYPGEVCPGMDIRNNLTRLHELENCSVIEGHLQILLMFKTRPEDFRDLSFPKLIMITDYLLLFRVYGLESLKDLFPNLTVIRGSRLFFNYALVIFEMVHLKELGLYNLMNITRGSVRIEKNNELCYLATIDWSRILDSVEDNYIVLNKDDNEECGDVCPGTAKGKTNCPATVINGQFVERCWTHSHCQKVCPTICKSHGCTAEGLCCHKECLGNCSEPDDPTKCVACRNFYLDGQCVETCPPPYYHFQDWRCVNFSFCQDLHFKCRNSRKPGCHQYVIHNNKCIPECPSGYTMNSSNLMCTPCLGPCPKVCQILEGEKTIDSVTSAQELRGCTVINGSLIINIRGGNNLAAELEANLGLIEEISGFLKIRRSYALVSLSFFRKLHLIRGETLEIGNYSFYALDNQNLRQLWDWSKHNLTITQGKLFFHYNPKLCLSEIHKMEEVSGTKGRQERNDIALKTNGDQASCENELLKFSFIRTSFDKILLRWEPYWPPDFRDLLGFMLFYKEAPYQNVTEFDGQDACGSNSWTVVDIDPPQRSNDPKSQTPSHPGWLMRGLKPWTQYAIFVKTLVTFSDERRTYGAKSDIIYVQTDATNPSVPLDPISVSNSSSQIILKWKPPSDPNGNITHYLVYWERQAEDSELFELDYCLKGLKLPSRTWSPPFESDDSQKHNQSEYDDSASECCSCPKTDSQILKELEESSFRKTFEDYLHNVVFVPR
INSRβ, sequence (P15208 753-1372 limits assumed): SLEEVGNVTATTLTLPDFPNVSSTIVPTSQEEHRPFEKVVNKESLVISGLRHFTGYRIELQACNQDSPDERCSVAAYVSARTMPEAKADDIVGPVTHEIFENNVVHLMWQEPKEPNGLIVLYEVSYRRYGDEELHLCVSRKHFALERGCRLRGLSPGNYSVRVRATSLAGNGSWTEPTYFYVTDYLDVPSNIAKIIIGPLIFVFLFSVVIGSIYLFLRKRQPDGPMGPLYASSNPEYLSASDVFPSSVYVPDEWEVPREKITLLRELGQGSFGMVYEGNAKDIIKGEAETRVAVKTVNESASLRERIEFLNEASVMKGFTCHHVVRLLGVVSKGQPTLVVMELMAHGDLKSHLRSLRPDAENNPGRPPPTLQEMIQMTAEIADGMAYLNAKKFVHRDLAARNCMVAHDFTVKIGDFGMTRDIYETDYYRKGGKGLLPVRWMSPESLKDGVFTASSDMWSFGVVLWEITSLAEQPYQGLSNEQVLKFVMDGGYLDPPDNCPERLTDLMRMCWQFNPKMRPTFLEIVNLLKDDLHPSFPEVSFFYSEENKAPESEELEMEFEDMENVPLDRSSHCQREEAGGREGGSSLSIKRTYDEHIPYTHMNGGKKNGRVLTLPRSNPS

Substance | impact of 3xTg-AD transgenes on 125I-insulin transport (Brain uptake) | phosphorylation of INSRβ in microvessel-depleted parenchymal fraction (INSRβ; ISCP 120 s, insulin 350 nM, western blot) | time to INSRβ phosphorylation after intracarotid administration (INSRβ; insulin 0.4 mg/kg or 350 nM, ISCP) [s]
125I-insulin: radiolabelled insulin used for transport quantification | no significant impact | – | –
insulin | – | no trace was detected | ≤ 120
